This note sets out measurements from article doi:10.1101/2022.10.21.513149, “Time-resolved cryo-EM using a combination of droplet microfluidics with on-demand jetting” (bioRxiv, 2022).

The target in one series is T1, GroEL (Escherichia coli MG1655, UniProt P0A6F5 1-548).
T1 construct: GroEL of Escherichia coli MG1655; synthetic construct based on the GroEL gene, in a pET-15b vector; also called GroEL-ATP; GroEL-(ADP); source: E. coli BL21, purified (ammonium sulfate cuts, Source Q15 anion exchange, Superose gel filtration); copies: 14
Briefly: cryo-EM structure; steady state continuous turnover reference, conventional plunger at around 20 s after the start of the reaction; GroEL (3.7 mg/ml) mixed with GroES (0.7 mg/ml), ATP (2 mM), CHAPS (0.1 %); 22 °C; fractions of complexes from 3D classification of particles. The following applies: both partners purified.

Series [1] deals with the molecule itself. The description is as above.

T1 sequence (P0A6F5 whole entry): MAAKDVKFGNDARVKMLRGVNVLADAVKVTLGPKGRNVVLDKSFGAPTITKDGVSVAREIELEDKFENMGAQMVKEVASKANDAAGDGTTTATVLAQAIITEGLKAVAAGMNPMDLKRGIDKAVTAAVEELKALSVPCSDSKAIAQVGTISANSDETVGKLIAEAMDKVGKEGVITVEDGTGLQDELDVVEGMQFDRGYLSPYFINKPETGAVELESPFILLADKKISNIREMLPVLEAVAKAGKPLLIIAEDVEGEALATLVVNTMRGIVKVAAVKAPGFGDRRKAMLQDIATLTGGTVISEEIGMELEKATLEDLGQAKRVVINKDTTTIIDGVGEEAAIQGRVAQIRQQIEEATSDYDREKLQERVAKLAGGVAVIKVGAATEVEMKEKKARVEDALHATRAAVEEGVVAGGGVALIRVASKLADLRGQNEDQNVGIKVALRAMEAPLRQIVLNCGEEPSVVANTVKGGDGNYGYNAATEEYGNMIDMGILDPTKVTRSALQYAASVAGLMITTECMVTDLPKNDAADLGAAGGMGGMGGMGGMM

B1: GroES (natural protein, Escherichia coli MG1655, UniProt P0A6F9 1-97, looked up)
chain: MNIRPLHDRVIVKRKEVETKSAGGIVLTGSAAAKSTRGEVLAVGNGRILENGEVKPLDVKVGDIVIFNDGYGVKSEKIDNEEVLIMSESDILAIVEA
notes: GroES of Escherichia coli MG1655; synthetic construct based on the GroES gene, in a pET-15b vector; source: E. coli BL21, purified (Source Q15 anion exchange, Superdex 200 gel filtration)
What is called stoichiometry N is the number of molecules, sites or subunits per partner or assembly. Regarding B1, in the series with GroEL, the “stoichiometry N” value turned out to be 2. Also, the binding result in series [1] is reported as “binds”.
